The record followed here is the DeepSol protein solubility set.

This data set is described as follows: soluble on expression in E. coli; label from the status in PepcDB or PDB records.
In the case of “MSVEPNHYLEITRSHVHQIYRELETSGKVITVDLVRKPYYDVDEDNKTLLQVFREHNEQSRKLIGKDFISKTVQRYETTTRYLEEFIKKEYQLSDIALNNLEANFISKFDAFLKIEKGCAQNSAITRLKNLKKIIRIALENDWIKKDPFAYYRFKLKETYPEFLTMDEIKIILAKEFTIKRVEQVRDVFIFCSYTGLAFSDVKDLSPEHLLKDNKGELWIKIFLSFHSSVFSSKNLHRLNTSLAKSMIQIKF”, the “soluble on expression in E. coli” value is on record as “not soluble”. In the case of “MSVEPTSVDPSPDKSAPANASGRADASARPSTGESARPSGGETPEVLRPHAEVTFAAELAALAAQDDRPRPVRWRLSPWAVATYLLGGTLPDGTVITPKYVGPRRIVEVAVTTLATDRALLLLGVPGTAKTWVSEHLAAAVSGDSTLLVQGTAGTPEEAIRYGWNYAQLLAHGPSRDALVPSPVMRAMADGMTARVEELTRVPADVQDTLITILSEKTLPIPELGQEVQAVRGFNLIATANDRDRGVNELSSALRRRFNTVVLPLPESADAEVDIVSRRVDQIGRSLDLPAVPDGVDEIRRVVTVFRELRDGVTTDGRTKLKSPSGTLSTAEAISVVTNGLALAAHFGDGVLRASDVAAGILGAVVRDPAADRVIWQEYLEAVVRERDGWMDFYRACREVSALEHHHHHH” it was “soluble”.

As to “MSVGQTLAEKILSHKVGRPVRAGELVVVEVDQVMVVDSIAGSFFKRLEYLEATPRYPERVSIVIDHVAPAANLEVAKAQKEIREWGKRHGIRVFDVGRGVCHQVLIEEGLAQPGWVVVGSDSHSTTYGAVGAFGTGMGATDIALAAASGRTWLRVPESVKVVFRGRLPKGVTAKDAALEMVRLLTAEGATYMAVEIHLLDGAEALTRGERMTLANLTVEAGAKAGLVVPSGEILEMYRVPDWLYPDPDARYAKEVEIDLSALTPRVSVPFYVDNVHEVAQVKGKRVDQVFIGTCTNGRIEDLRAAAEVLKGRKVAPWVRLLVVPASSQVLEEAARDGTLLTLLEAGATIGTPGCGPCMGRHMGVLAPGEVCVSTSNRNFRGRMGAPDAEIYLASPRVAAASAVAGYLTTPEELEEEEVHA”, the “soluble on expression in E. coli” value was “soluble”.

“MSVIIVGGGMAGATLALAISQFSHGTLPVHLIEAKAPEADGHPGFDARAIALAAGTCQQLARIGVWQAISDCATAINTVHVSDRGHAGFVTLDAQDYSLAALGHVAELHDIGLRLFALLRKAPGVTLHCPERVASVSRTQQQVNVTLENGNVIAGSVLVAANGTHSALASRCGVDWHQEPYEQLAVIANVATAIPHQGRAFERFTPNGPLAMLPMSHGRCSLVWCHPLDQRDEVLSWSDAQFCHALQAAFGWRLGRITQAGKRSAYPLALTTAAKVFSHRTVVVGNAAQTLHPIAGQGFNLGLRDVMSLAETLVAAQDAGEDIGAWHVLSRYQQRRQVDRDTTIGVTNGLVHLFANRWAPLVIGRNIGLMAMELLPPARDALAQRTLGWVARLEHHHHHH”: the “soluble on expression in E. coli” value is recorded as “not soluble”.

As for “MSVKEPEKFLASHIYNIDYQEDLNKCFANLCTNKKNTILLESAEIDTKDKLKSILVLNSALRIACIENKVFIKPLSENGKYALKAIQENIKKDVDYKYDNNQLVLTFEFIKDYQLSESQKLKKPSVFDALRIIKDSFEIYNEFSIFLAGLFAYDVVASFENIGKIKRKNKCPDYVFYLADTILVSDHQEQKTFIQVNSFGHQTITDLEDSVAAIKQNINNDIELKVEKFKNIEPKESINDRDFCIVVDKLKSHIIDGDIFQVVPSRSFFLPCQNSLEVYKELKRTNPSPYMFYMQDEDFILFGASPESALKYQKSTNQVEIYPIAGTRRRAKNSDGSINADLDSRIELELRLDAKENAEHMMLVDLARNDVARISKTGTRYVADLLKVDRYSHVMHLVSRVVGQLADDLDALHAYQASMNMGTLTGAPKIKAMQLISEVEKQTRGVYGGAIGYFNGYGDLDSCIVIRSAYVENGVAEIQAGAGVVLDSIPIAEADETRTKAQAVISAIKNVHGV”, the “soluble on expression in E. coli” value was “not soluble”. As to “MSVKHHDVIIIGAGAAGLMCAATAGYRGRDVLVLDNAKQAGRKILISGGGRCNFTNLKVEPANFICGNPHFVKSALARYPSQQFIELVERHGIEYHERDHGQLFCNDSAKEIVTMLLTECEWAGVSIKLRTDILSVGKNEAGRFELNTSNGELSCDSLVIATGGLSMPKLGATPYGYQLAEQFGLKVLPTHAGLVPFTWHSEDKIRFEPLSGIAVPSRITAKDGTAFSEALLFTHRGLSGPAILQISNYWKAGETIKINLLPNMDAAQAIEQQLAAHPKQSLRNTLSLWLPKRLVEVLFDEVLLNKALNQLVHAERAKLVDDLHRWTVLMNGTEGYRTAEVTLGGVDTHELSSKTMEAIKVPGLFFIGEVMDVSGWLGGFNFQWAWASGVAAGKAV”, the “soluble on expression in E. coli” value is “not soluble”. The entry for “MSVLDLVALSEGMTAGEAIAHSVRAAQIAEEHNYARFWVAEHHNSEGLASSATTLLMGHIAGHTSRIRVGSGGIMMPNHSALHVAEELGTLEAIYPGRIEAGLGRAPGTDPMTARELGRASSLVDDVLSTIVSLQNYLDTPEERPNIIAHPGINSRVPLFMLGSSLNGAAMAAKLDLPFAFASHFAPFQMGPAIASYRELAANPYVMAAANVLVCDTEEEAEFQISTLHQMFAGIVTNSRGKLAPPVRNLKDKLDPMIWKHIEDSLEMTFIGTAESVVLQLQEFADRYKLDEIITVTYSYDPEVRFRSIAALGT” is “not soluble”. The entry for “MSVLRRLTWLAFPLLSMAFNVQANTAPAQLNKAELEQRFAKLGLQVEEIKTSDINGLLEVQTSGGVLFSSPDGEHFIAGTLYALDGNGGYVDVLAKRQAPLNAKKIAALQDSMIEFKAPNEKYAITVFTDITCGYCVRLHSQIKEYNDLGITVRYLAYPRQGPQGQVADQMAAIWCSNDPKAAMHDAKVNRKTITADKDIAQCQKTIAQHYMLGHELGISGTPAIFLPNGEMVGGYLPAPQLLQRLQATQ” is “not soluble”; for “MSVMADRLDNMDITVSSPDGNIEGRYRRRGELTLEFRGDAYEQYRQHTLEHQLARLATLLWTGYQREYDAAVSEVVGHPVKDERHLWDANRRRYREAQRATAASGMSAGGRVYIENTGMLSWHVVIRDGTLGELTAAEFASECLSAFDALWRDYRSKMAALRAEHYGLSFASKRRERQPRH” it is “not soluble”.

In the case of “MSVPFLQQYRVGSYILKQKLAGNKRYPLVLMLEPLFQCNLACAGCGKIDYPEETLRRRLSVDECLHAVDECGAPVVSIAGGEPLIHKEMPQIVQGIIQRKKFVYLCTNALLLDTRMDDYQPSPYLTFSIHLDGNRERHDASVCREGVYDKVIPVIEQALQRGFRVTVNCTLFQSETAEEVAEFFDTATKLGVEGINVSPGFSYEHAPRQDVFLQRSVSKRLFRSIFEIGKKRKLPWKFNHSSLYLDFLAGNQSYKCTPWGNPTRNLFGWQRPCYLLVDEGYATSFRELMEETDWDRYGVGNNPKCANCMAHCGFEPTAINDTFAHPLKALRVSMRGPRVEGPMALDPLQTSSESQHNTDKRKPFPIPVTVEHKTVAPSSDHSSGPDN”, the “soluble on expression in E. coli” value was “not soluble”. The entry for “MSVRIEDHAMLGNCHSAALVDHRGTIGWLCLPRFDSDAVFAALLGDQQHGQWALSPAADFRTERAYQDDSLVLCTRMITDSGTVELIDFMVASENGEVHQHLVRIVRCVQGSVPMHMRLTFRFNYGRTLEHHHHHH” is “soluble”; for “MSVRRLADDVYQPAEFSFTKENQIWVKNTIEKYPVGREQSAVIPLLMRAQEQDGWVTRAAIEHIAQILSMAYIRVLEIATFYTQFQLQPVGTKAHIQVCGTTPCMLRGSEELIKVCQKKIHHKPFVTNQDGSLSWEEVECLGACVNAPMVMIFKDTYEDLTAKRLEEIIDAFEAGKGAEIAVGPQNSRKSSEPISGLTSLIDEKEQKSLKSLKKKDKKEMGA” it is “not soluble”; for “MSVVSNHHSNGNGNSTVYDTNGNDEIKKEVKDEPMASDSEVPFGELMKRDKKEKKQKKRKAESGSDEDDYKPEKRKSSAKNGKKKDVGSDSEDDYKPEKKKSKKNNKKKAQESSEDDDEESEGDVSEEDVKPQIHSDDELEEEDEAPTTDDEEEQKRKEKERRKKEKREKKERKEKKRLEKENRKIKEEDDEDSDDEDDEKAKKKKRKSKGAEKSKPSTSKKDAGGKKEPPKKKVKKEEDIEDIWEWWKEEKKPAGVKWNSLQHCGPLFAPPYIPLPSHVHFKYGGEKMKLTLETEEIAQFYAGVLDHEYSTKEAFNKNFMKDWRKVMTVEERERIHDLKKCDFRAIDAYQKEQREIRKAMTKEEKLKIKEEKEAEVKIYGIAIIDGHRQKVANFRIEPPGVFRGRGGHPKMGLIKKRIMPEDVIINCGKDTEIPKPPPGHKWKEVRHDNTVTWLCSWTESVLGQNKYIMLNPSSKIKGEKDFEKYETARRLKKKIGGIRERYTDDFKSKEMRVRQRATALYFIDKLALRAGNEKDVDEAADTVGCCSLRVEHIKLFDSAKLNEDDKKEKEFVVEFDFLGKDSIRYFNRVSVEKRVYKNLKIFMEGKAPSDDLFDRLDTATLNDHLRSLMDGLTVKVFRTYNASITLQEQLIKLTNPKDNVAAKILSYNRANRQVAILCNHQRAVSKGFDESMQKLEQKIKDKKKEVKEAEAALKSARGAEKEKAQKKYDRLKEQLKKLKISRTDKDENKQIALGTSKLNYIDPRITVAWCKKFEVPLEKVFTKTHREKFRWAIDMTNSSDEEYVF” it is “soluble”.

Consider “MSWLKEVIGTEKAVIAMCHLRALPGDPSFDAQLGMNWVIDKAWDDLMALQNGGVDAVMFSNEFSLPYLTKVRPETTAAMARIIGQLMSDIRIPFGVNVLWDPVASFDLAMATGAKFIREIFTGAYASDFGVWDTNVGETIRHQHRIGAGEVKTLFNIVPEAAVYLGNRDICSIAKSTVFNNHPDALCVSGLTAGTRTDSALLKRVKETVPDTVVLANTGVCLENVEEQLSIADGCVTATTFKKDGVFANFVDQARVSQFMEKVHHIRR”, for which the “soluble on expression in E. coli” value was “not soluble”. The entry for “MSYDYIVSQYLAYIKDITLEGCKAEEIFDYFKDKLNIVSKEGCDKPYIKVYKNNRLYFSYYGIPAINEFWPFLNALVRISNNVIQLDEKEKELAANIRGNIKLFVTPDCTKCPIAAELLYQLPILNSNISLEIIDVTTYDDLGKKHRVLNVPKIVLNEKTEIPGSFPPTIILKMLAKGSEQH” is “soluble”. The entry for “MSYEDWAGGIRCSECGREYTGIECPICRQADPTEREVVTEHGNGRGDQQPPENGTVSADSGVYDIDKIEHERHTDAEKVNPEVVDPSDYVTRAVSGVVFNKRHAWKAENRADEDNPPSLFVVTTADSEFNWIEIPLWDDAEGAMEDISIGDPIQAEGKLSKDNGVHNIHVHSQDSIDILTEPPEVKFDSMAIDQITSTTPKVDLEGTVERVGEIKDIQLDDEKVKLREIHVSDLNNDQIQVALWRTNAYEKVAPGDEIIIAGGLAKPHNEKVVVRVGWSGHIGYRSSLEHHHHHH” is “not soluble”. In the case of “MSYKIVIDSCGELLDEWKKDPRFESVALTLSVGGENIIDDENFDQASFLKKVADCPECPKSACPSPERYMRAFDCDADHVYAVTLSAELSGSYNSAVLGKSLLQEENPGKQIYVFNSKSASVGQSLIAMKIQECEEAGYSFEKVIETVEAYIADQHTFFVLDNLETLRKNGRLSKVKALVASALKIKPVMGSTDEGAICQLDQARGMNKALVKMAQNIVDKTKDSENKILAISHCNCRERAVLLKNALEERMPVKHIVILDTAGVSSMYANDGGVIVAV”, the “soluble on expression in E. coli” value is listed as “not soluble”. In the case of “MSYNSIRLPQDLPIYYKNFFPVKPFTKWLRYGQNNGDYFNRREFAFILADDVHIRYRSYNDEHAFFKALSSTNPEKLDIGAVYNHEPINNKRHTDYQAVERELVFDIDLTDYDPVRNCCKDATVCPKCWKFMVLAVKILDFQLEDMFDFKARMWVFSGRRGVHCWVGDKKARMLNNYQRSAIATRLNLFKKNGQCEVTEGRAKMTKVPPIVRDAFNVALKDGVFEKMIYDQGWLDKEDFITEYKFMSEVGRDDLRSLSETYKTPQERWNMIRGLFDDDYRKSLSPKDGLLDFKMQGRDRNYLLYFVLQRCYPRLDVNVSTGTNHLLKSPFCIHPKTGNVAVPLNVGKIEEFDVSKCPRIDHVVEELSSLLAERGNDENEDSKNRKFLAYKHGALAPYVENFEKFVSACIS” it was “not soluble”.
